Data published in publication PMC11387697, “Defining the functional properties of cyclopropane fatty acid synthase from Pseudomonas aeruginosa PAO1” (The Journal of Biological Chemistry, 2024).

B1: Pseudomonas aeruginosa PAO1 cyclopropane fatty acid synthase (PA-CFAS) (enzyme, UniProt Q9HT28 1-394, looked up)
chain: MIAQLPSELLSLQLPLRIRIGDAQAFDLGPDPQVTMVIRDPSLLTEITHPSLDALGKAYVEKRLDIEGPISQVIGIGDALSEALGEPDGGAPPVRESHDKDTDAEAIHYHYDLSNDFYQLWLDPEMVYSCAYFETGKEDLATAQLAKLRHLCRKLRLQPGEKLLDVGCGWGGLARLAAREFGVEVTGITLSKEQLALGRERVKAEGLEDRVTLKLLDYRDLPRDGRFDKVVSVGMFEHVGHANLGLYFQQLYEAVRPGGLVMNHGITSRYTDGRPVGKGAGDFIDRYVFPHGELPHLSLAVARMSEAGLEVVDVESLRLHYARTLDFWSANLEARLKEAARLVPEETLRIWRLYLAGCAYGFKRGWINLHQILAIRPHEDGSHELPWSRRDLYA
notes: Cyclopropane fatty acid synthase, gene PA5546, P. aeruginosa PAO1, amplified from the PAO1 genome and cloned into pET16b; monomer with His6 tag MWcalc = MWobs = 46,486 Da; The native-MS dimer mass (92,972 Da) is twice the tagged monomer mass, so the tag was present in the assay; also called PA5546; Pseudomonas CFAS enzyme
B2: EC-CFAS (Escherichia coli K-12) (protein)
chain: SSSCIEEVSVPDDNWYRIANELLSRAGIAINGSAPADIRVKNPDFFKRVLQEGSLGLGESYMDGWWECDRLDMFFSKVLRAGLENQLPHHFKDTLRIAGARLFNLQSKKRAWIVGKEHYDLGNDLFSRMLDPFMQYSCAYWKDADNLESAQQAKLKMICEKLQLKPGMRVLDIGCGWGGLAHYMASNYDVSVVGVTISAEQQKMAQERCEGLDVTILLQDYRDLNDQFDRIVSVGMFEHVGPKNYDTYFAVVDRNLKPEGIFLLHTIGSKKTDLNVDPWINKYIFPNGCLPSVRQIAQSSEPHFVMEDWHNFGADYDTTLMAWYERFLAAWPEIADNYSERFKRMFTYYLNACAGAFRARDIQLWQVVFSRGVENGLRVAR

Assays:
[1] = target: the molecule itself; assay: native MS; native ion mobility MS; 5 uM enzyme buffer exchanged into 200 mM ammonium acetate, pH 7.5; nanoESI under gentle conditions (Waters Synapt G2-Si); collision-induced unfolding of the 20+ dimer ion at 4 to 110 V
[2] = substrate: C[S+](CC[C@H](N)C(=O)O)C[C@H]1O[C@@H](n2cnc3c(N)ncnc32)[C@H](O)[C@@H]1O; assay: purified protein; conditions: 60:40 PE 18:1/18:1:DPPG 100 nm unilamellar liposomes 1 mg/ml, HEPES pH 7.5, 37 °C

| Protein | stoichiometry N [1] | Km [2] | kcat [2] |
| --- | --- | --- | --- |
| B1 | 2 | – | – |
| B2 | – | 68 µM | 13 min⁻¹ |
